{
  "source": "paper PMC3651894",
  "about": "(Cell, 2013)",
  "key": {"[1]": {"biological_target": "T1, full-length FLAG-tagged Dicer (F-Dicer), baculovirus/Sf9 (human, UniProt Q9UPY3 1-1922)", "T1 sequence (Q9UPY3 whole entry)": "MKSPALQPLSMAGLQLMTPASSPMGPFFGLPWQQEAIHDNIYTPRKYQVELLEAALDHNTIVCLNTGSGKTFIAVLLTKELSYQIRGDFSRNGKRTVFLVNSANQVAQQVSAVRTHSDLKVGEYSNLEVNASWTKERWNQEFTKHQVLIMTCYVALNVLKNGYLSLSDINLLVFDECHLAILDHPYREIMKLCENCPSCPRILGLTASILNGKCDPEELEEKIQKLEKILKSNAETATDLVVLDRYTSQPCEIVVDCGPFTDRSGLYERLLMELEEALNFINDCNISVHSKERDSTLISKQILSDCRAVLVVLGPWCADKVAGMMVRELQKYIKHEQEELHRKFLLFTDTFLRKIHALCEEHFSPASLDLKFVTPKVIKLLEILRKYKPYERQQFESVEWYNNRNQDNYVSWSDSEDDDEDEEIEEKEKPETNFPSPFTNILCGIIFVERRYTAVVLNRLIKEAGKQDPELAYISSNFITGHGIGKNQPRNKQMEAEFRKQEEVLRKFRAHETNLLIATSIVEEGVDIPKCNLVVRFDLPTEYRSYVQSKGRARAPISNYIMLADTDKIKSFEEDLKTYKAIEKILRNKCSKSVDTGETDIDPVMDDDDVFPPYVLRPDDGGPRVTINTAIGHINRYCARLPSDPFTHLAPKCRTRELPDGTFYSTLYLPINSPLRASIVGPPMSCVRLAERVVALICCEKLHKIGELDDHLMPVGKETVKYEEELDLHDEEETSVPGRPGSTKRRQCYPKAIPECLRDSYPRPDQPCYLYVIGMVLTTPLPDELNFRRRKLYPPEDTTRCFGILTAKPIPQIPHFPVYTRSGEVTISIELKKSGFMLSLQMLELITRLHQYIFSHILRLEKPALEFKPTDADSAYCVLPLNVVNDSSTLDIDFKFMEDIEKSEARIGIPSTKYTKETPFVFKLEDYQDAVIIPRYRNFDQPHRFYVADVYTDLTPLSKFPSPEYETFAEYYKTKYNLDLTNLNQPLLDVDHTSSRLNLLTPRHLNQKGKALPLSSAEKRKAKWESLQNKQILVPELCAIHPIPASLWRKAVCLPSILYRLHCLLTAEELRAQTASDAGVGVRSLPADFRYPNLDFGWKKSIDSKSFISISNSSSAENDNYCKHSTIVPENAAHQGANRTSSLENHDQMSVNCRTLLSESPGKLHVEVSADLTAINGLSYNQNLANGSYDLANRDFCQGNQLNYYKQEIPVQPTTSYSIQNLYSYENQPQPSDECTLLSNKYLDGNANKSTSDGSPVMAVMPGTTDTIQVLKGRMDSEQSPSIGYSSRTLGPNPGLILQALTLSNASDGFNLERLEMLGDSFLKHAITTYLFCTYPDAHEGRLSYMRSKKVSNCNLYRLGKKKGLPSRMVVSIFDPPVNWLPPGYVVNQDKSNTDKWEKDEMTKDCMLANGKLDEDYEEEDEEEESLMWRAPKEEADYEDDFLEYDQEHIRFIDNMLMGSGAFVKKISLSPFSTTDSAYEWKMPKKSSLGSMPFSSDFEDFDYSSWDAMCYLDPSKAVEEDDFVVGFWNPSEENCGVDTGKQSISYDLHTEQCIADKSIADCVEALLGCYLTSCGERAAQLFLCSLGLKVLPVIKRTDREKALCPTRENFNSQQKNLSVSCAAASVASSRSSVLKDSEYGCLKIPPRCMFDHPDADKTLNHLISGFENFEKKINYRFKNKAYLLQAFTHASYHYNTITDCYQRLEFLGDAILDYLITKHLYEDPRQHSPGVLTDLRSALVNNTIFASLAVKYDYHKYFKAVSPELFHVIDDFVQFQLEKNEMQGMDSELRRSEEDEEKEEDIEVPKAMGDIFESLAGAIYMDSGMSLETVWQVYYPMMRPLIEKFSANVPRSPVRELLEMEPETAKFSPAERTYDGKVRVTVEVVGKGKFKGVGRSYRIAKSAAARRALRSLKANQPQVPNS", "assay": "SEC"}, "[2]": {"biological_target": "F-DicerΔN1 lacking a part of the DEAD-box RNA helicase domain (human)", "sequence (Q9UPY3 whole entry, stated change not applied, the tested form may be a part)": "as the sequence (Q9UPY3 whole entry) above", "assay": "co-IP"}, "[3]": {"biological_target": "F-DicerΔ3 mutant lacking the DUF283 domain (human)", "sequence (Q9UPY3 whole entry, stated change not applied, the tested form may be a part)": "as the sequence (Q9UPY3 whole entry) above", "assay": "co-IP"}, "[4]": {"biological_target": "T1, full-length FLAG-tagged Dicer …", "assay": "pull-down + co-IP"}},
  "data": [
    {"binder": "full-length HAT (histidine affinity tag)-tagged ADAR1p110 (H-ADAR1p110), baculovirus/Sf9 (natural protein, human, UniProt P55265-5 1-931, looked up) MAEIKEKICDYLFNVSDSSALNLAKNIGLTKARDINAVLIDMERQGDVYRQGTTPPIWHLTDKKRERMQIKRNTNSVPETAPAAIPETKRNAEFLTCNIPTSNASNNMVTTEKVENGQEPVIKLENRQEARPEPARLKPPVHYNGPSKAGYVDFENGQWATDDIPDDLNSIRAAPGEFRAIMEMPSFYSHGLPRCSPYKKLTECQLKNPISGLLEYAQFASQTCEFNMIEQSGPPHEPRFKFQVVINGREFPPAEAGSKKVAKQDAAMKAMTILLEEAKAKDSGKSEESSHYSTEKESEKTAESQTPTPSATSFFSGKSPVTTLLECMHKLGNSCEFRLLSKEGPAHEPKFQYCVAVGAQTFPSVSAPSKKVAKQMAAEEAMKALHGEATNSMASDNQPEGMISESLDNLESMMPNKVRKIGELVRYLNTNPVGGLLEYARSHGFAAEFKLVDQSGPPHEPKFVYQAKVGGRWFPAVCAHSKKQGKQEAADAALRVLIGENEKAERMGFTEVTPVTGASLRRTMLLLSRSPEAQPKTLPLTGSTFHDQIAMLSHRCFNTLTNSFQPSLLGRKILAAIIMKKDSEDMGVVVSLGTGNRCVKGDSLSLKGETVNDCHAEIISRRGFIRFLYSELMKYNSQTAKDSIFEPAKGGEKLQIKKTVSFHLYISTAPCGDGALFDKSCSDRAMESTESRHYPVFENPKQGKLRTKVENGEGTIPVESSDIVPTWDGIRLGERLRTMSCSDKILRWNVLGLQGALLTHFLQPIYLKSVTLGYLFSQGHLTRAICCRVTRDGSAFEDGLRHPFIVNHPKVGRVSIYDSKRQSGKTKETSVNWCLADGYDLEILDGTRGTVDGPRNELSRVSKKNIFLLFKKLCSFRYRRDLLRLSYGEAKKAARDYETAKNYFKKGLKDMGYGNWISKPQEEKNFYLCPV", "values": [
      {"measurement": "stoichiometry N", "setting": "[1]", "result": 1, "unit": "ADAR1 per Dicer"},
      {"measurement": "fold reduction of interaction against full-length F-Dicer", "setting": "[2]", "result": "< 4", "unit": "fold"},
      {"measurement": "fold reduction of interaction against full-length F-Dicer", "setting": "[3]", "result": "< 4", "unit": "fold"},
      {"measurement": "stoichiometry N", "setting": "[4]", "result": "~1", "unit": "ADAR1 per Dicer"}
    ]}
  ]
}
